# Legend:
# EPHB2 = EPHB2 (UniProt P29323); assay: phosphorylation enrichment, bacterial display (enrichment ratio); higher = better substrate or ligand; peptides without Tyr show the background
# Fer (mouse) = assay: as above
# EPHB1 = EPHB1 (UniProt P54762); assay: as above
# Fes = Fes (UniProt P07332); assay: as above
# Fyn = Fyn (UniProt P06241); assay: as above
# Jak2 = Jak2 (UniProt O60674); assay: as above
# AncSZ = assay: as above
# MERTK = MERTK (UniProt Q12866); assay: as above
# FGFR3 = FGFR3 (UniProt P22607); assay: as above
# FGFR3, sequence (P22607 whole entry, looked up): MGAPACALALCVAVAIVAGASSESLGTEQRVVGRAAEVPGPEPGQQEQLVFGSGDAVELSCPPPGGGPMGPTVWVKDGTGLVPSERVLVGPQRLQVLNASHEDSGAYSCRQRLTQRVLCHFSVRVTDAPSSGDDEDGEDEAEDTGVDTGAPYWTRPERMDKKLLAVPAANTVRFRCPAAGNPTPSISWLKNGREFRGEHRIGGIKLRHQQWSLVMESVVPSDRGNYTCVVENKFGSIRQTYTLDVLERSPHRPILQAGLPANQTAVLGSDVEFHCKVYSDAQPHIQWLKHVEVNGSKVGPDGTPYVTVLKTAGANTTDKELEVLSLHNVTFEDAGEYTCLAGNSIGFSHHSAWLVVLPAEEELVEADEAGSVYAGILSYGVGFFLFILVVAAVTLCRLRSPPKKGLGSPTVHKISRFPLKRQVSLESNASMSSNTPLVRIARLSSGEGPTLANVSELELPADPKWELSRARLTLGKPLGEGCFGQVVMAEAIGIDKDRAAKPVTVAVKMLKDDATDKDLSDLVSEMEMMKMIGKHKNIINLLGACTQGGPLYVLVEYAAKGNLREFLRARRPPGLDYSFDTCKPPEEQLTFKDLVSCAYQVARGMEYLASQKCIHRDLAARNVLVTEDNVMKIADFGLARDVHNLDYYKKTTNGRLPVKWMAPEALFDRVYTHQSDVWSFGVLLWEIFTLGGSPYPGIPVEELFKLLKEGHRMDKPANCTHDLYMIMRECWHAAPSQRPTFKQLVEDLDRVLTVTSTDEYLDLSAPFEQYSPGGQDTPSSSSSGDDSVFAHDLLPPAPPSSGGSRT
# c-Abl (mouse) = assay: as above
# FGFR1 = FGFR1 (UniProt P11362); assay: as above
# FGFR1, sequence (P11362 whole entry, looked up): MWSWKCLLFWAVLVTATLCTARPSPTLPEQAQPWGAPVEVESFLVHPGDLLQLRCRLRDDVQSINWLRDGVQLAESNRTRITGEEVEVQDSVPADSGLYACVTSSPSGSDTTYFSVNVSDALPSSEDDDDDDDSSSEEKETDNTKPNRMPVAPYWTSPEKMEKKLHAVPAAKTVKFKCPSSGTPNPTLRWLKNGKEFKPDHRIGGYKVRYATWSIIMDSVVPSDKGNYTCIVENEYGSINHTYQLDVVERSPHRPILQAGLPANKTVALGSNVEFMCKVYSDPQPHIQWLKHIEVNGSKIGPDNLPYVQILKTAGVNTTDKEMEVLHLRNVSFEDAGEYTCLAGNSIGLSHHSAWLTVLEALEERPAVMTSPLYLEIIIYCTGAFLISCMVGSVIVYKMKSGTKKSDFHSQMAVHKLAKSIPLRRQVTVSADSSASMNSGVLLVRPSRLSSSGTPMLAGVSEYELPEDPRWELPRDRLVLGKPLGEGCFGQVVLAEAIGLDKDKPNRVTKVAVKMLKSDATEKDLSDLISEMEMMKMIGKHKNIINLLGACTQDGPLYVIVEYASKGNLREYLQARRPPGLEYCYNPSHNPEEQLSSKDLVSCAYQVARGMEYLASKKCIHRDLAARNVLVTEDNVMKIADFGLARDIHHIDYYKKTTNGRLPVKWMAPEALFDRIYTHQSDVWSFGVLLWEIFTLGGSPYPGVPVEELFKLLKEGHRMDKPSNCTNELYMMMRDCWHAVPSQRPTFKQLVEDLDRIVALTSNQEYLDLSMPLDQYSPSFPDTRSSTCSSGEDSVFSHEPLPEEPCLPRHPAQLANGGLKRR
# Hck = Hck (UniProt P08631); assay: as above
# c-Src = assay: as above
# c-Src SH2 = assay: SH2 binding enrichment of the phosphorylated peptide, bacterial display (enrichment ratio); higher = better substrate or ligand; peptides without Tyr show the background
# Grb2 SH2 = Grb2 SH2 (UniProt P62993); assay: as above
# SHP2-C SH2 = assay: as above
# 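Wherever SH2 binding enrichment of the phosphorylated peptide, bacterial display is given: peptide library displayed on the E. coli surface as eCPX fusions, selected cells deep-sequenced, score is each peptide's frequency after selection divided by its frequency in the input.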
# 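Wherever phosphorylation enrichment, bacterial display is given: 11-residue human phosphosite peptides and single-mutation variants displayed on the E. coli surface, counted by deep sequencing, each peptide's frequency after selection divided by its frequency in the unselected input library; frequency after pTyr selection over input frequency; kinase dosed for 20-30% of maximal phosphorylation in three min.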
# Fyn, sequence (P06241 whole entry, looked up): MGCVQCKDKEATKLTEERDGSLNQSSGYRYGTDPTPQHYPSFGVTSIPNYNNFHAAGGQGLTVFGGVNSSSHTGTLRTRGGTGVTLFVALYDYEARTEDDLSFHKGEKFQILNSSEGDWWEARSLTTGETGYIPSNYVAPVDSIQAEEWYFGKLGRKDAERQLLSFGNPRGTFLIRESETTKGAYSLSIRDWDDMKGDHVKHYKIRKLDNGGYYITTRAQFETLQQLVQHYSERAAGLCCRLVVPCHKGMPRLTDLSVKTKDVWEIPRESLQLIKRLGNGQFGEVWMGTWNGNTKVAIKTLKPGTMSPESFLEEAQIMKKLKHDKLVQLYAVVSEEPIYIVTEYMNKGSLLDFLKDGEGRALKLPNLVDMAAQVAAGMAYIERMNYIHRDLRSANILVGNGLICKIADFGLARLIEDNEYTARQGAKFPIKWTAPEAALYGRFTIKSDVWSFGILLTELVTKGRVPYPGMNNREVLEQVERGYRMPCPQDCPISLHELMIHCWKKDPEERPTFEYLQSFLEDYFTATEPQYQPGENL
# MERTK, sequence (Q12866 whole entry, looked up): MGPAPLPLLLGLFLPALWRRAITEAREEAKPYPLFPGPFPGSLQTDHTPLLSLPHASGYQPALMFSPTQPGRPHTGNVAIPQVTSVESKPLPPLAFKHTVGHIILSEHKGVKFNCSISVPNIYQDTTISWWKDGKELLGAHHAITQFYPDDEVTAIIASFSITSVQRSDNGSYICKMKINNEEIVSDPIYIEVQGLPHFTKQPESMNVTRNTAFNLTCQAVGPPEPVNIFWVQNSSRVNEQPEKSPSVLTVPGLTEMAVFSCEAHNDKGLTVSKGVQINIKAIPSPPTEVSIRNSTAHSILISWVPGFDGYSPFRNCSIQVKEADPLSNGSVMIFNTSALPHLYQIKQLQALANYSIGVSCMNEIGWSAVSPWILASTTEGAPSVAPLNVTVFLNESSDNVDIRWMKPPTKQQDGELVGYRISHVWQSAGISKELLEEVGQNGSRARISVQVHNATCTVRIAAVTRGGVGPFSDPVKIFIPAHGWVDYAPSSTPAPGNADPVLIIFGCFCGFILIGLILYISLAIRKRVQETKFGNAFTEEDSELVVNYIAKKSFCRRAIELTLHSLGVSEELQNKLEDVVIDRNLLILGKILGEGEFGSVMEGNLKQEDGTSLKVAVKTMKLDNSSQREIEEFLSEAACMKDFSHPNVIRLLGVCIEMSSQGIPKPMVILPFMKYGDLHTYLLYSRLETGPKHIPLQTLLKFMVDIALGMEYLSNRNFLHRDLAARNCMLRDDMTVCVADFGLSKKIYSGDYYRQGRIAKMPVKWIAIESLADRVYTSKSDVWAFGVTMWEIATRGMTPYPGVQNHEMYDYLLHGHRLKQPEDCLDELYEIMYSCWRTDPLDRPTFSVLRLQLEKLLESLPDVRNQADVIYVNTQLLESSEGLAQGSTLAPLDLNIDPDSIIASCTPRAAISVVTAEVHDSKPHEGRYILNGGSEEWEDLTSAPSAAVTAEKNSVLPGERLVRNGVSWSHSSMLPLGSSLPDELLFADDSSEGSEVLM
# Fes, sequence (P07332 whole entry, looked up): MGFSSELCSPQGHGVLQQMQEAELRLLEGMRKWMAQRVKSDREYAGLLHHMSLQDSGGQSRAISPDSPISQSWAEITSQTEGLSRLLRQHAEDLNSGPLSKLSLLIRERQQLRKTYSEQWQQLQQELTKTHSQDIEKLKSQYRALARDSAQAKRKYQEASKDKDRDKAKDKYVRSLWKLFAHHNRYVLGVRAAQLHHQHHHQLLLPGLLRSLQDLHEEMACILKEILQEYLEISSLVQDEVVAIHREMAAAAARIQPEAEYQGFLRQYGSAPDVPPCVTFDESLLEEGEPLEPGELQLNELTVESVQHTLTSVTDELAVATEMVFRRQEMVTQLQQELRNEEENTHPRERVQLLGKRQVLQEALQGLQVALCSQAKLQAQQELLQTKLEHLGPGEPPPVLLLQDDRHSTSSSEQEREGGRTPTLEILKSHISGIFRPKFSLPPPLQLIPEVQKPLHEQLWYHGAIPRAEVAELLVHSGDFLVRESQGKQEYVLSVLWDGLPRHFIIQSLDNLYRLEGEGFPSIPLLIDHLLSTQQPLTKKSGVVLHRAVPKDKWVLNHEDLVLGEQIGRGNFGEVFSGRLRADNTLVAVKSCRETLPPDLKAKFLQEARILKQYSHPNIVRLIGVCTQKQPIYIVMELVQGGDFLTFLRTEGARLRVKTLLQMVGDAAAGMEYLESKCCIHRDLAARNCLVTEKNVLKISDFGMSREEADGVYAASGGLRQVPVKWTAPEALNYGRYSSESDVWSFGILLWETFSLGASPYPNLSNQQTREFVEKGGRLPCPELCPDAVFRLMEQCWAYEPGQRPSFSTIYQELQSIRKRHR
# EPHB2, sequence (P29323 whole entry, looked up): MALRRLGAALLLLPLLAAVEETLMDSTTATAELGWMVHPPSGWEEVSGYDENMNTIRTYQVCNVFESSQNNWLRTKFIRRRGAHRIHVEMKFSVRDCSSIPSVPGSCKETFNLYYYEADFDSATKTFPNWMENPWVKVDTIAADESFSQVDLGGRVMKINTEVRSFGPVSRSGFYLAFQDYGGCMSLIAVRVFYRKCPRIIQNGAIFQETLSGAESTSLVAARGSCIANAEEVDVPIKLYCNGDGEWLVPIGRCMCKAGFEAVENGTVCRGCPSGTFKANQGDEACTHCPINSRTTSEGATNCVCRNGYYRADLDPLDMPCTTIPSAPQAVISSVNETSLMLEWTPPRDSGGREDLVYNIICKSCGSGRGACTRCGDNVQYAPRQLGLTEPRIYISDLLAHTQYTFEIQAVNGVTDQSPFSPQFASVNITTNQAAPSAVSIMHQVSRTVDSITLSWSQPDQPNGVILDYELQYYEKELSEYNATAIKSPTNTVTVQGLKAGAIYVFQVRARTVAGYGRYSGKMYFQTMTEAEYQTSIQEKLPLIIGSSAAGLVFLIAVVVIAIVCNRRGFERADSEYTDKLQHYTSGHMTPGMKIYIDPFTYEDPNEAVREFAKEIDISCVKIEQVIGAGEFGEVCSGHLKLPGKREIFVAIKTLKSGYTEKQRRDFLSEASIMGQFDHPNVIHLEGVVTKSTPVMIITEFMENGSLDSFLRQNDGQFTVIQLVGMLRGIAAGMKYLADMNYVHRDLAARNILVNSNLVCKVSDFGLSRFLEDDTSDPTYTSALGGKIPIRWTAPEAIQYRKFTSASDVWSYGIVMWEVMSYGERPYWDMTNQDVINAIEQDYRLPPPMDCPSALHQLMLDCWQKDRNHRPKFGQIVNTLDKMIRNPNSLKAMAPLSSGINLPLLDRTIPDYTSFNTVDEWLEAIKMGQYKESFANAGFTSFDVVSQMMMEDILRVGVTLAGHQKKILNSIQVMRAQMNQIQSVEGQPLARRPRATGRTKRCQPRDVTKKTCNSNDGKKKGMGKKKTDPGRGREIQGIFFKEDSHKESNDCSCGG
SH2 binding enrichment (c-Src SH2),SH2 binding enrichment (Grb2 SH2),SH2 binding enrichment (SHP2-C SH2),Sequence,phosphorylation enrichment (EPHB2),phosphorylation enrichment (Fer (mouse)),phosphorylation enrichment (EPHB1),phosphorylation enrichment (Fes),phosphorylation enrichment (Fyn),phosphorylation enrichment (Jak2),phosphorylation enrichment (AncSZ),phosphorylation enrichment (MERTK),phosphorylation enrichment (FGFR3),phosphorylation enrichment (c-Abl (mouse)),phosphorylation enrichment (FGFR1),phosphorylation enrichment (Hck),phosphorylation enrichment (c-Src)
0.528,0.749,0.514,ANSSFHSTRSA [NUMA1_Y1836_Y1836H],0.51,0.425,0.436,1.04,0.555,0.552,0.597,0.496,0.599,0.616,0.551,0.551,0.602
0.479,0.789,0.602,ARGTRYRYVSQ [UCN3_Y95],0.461,0.493,0.39,0.637,0.492,0.437,0.534,0.529,0.483,0.608,0.42,0.469,0.572
0.51,0.89,0.689,ASNNPYFRDQA [RPGRIP1_Y846],0.357,0.434,0.396,0.694,0.5,0.547,0.605,0.416,0.656,0.537,0.443,0.449,0.512
0.642,0.872,0.661,ATATDYHTTSH [SLC4A1_Y46],0.348,0.328,0.31,0.482,0.294,0.387,0.473,0.438,0.434,0.416,0.408,0.397,0.334
1,1.42,1.4,AVIADYMFWLG [SPATA16_Y290_M286V],12.4,2,6.08,1.3,0.852,3.42,2.25,2.51,10.7,1.17,13.1,1.34,1.17
0.139,,0.29,TDECEYDELIV [TGM1_Y136_Y134C],0.842,1.61,1.09,1.13,2.06,0.788,1.41,0.604,0.865,0.742,0.57,1.8,0.529

# Second part, the sequence before the results:
Sequence,SH2 binding enrichment (c-Src SH2),SH2 binding enrichment (Grb2 SH2),SH2 binding enrichment (SHP2-C SH2),phosphorylation enrichment (EPHB2),phosphorylation enrichment (Fer (mouse)),phosphorylation enrichment (EPHB1),phosphorylation enrichment (Fes),phosphorylation enrichment (Fyn),phosphorylation enrichment (Jak2),phosphorylation enrichment (AncSZ),phosphorylation enrichment (MERTK),phosphorylation enrichment (FGFR3),phosphorylation enrichment (c-Abl (mouse)),phosphorylation enrichment (FGFR1),phosphorylation enrichment (Hck),phosphorylation enrichment (c-Src)
AMCVRYDGVEV [ADAMTSL2_Y594],0.859,0.805,0.682,0.735,0.791,0.764,1.26,0.583,1,1.19,0.49,0.781,0.817,0.7,0.644,0.542
ANAFIYVVQLP [L1CAM_Y420_YF],0.478,0.85,0.668,0.743,0.559,0.701,1.32,0.631,1.02,1.19,0.909,0.855,0.724,0.538,0.693,0.678
APAHKYHGGGG [HBD_Y146_L142P],0.538,0.709,0.66,0.419,0.329,0.288,0.502,0.328,0.35,0.778,0.549,0.423,0.616,0.37,0.294,0.537
AQAGEYGAEAL [HBA1_Y25_H21Q],0.608,0.931,0.842,0.545,0.465,0.609,0.96,0.507,0.767,0.965,0.327,0.629,0.491,0.557,0.514,0.33
ARLEFYENEKK [IRS1_Y47_YF],2.68,1.18,1.19,0.597,0.406,0.623,0.995,0.439,0.887,1.1,0.462,0.604,0.492,0.58,0.451,0.411
ARLEYCENEKK [IRS1_Y47_Y47C],0.49,0.594,0.766,0.475,0.464,0.552,0.815,0.567,0.687,0.795,0.449,0.702,0.486,0.786,0.421,0.486
ARSHIYTFSSC [MEFV_Y741_A744S],0.751,0.893,1.46,0.665,0.497,0.519,0.917,1.3,0.714,0.867,0.62,0.681,0.578,0.547,0.61,1.15
ARTNEYKIIRT [INA_Y87],0.494,0.877,1.11,0.425,0.512,0.468,0.469,0.504,0.571,0.525,0.436,0.452,0.843,0.455,0.502,0.569
ASGKYYAMKIL [AKT3_Y174],1.43,0.957,0.941,0.407,0.434,0.313,0.657,0.446,0.662,0.664,0.591,0.623,0.582,0.74,0.434,0.396
ATARPYSPYII [LRP5_Y1528_R1529S],0.619,0.838,0.764,0.192,6.92,0.473,0.731,0.934,0.668,0.646,0.375,0.727,0.544,0.351,0.456,1.02
AVAFVYFKSIG [ADGRL4_Y301_YF],0.628,0.928,0.686,0.797,0.728,0.911,1.6,0.643,1.15,1.38,0.471,1.01,0.938,0.798,0.626,0.426

# — the supplement of paper PMC10065799, “High-throughput profiling of sequence recognition by tyrosine kinases and SH2 domains using bacterial peptide display” (eLife, 2023)
